Measurements as given in patent US20200079848A1 (Five Prime, published 2020).
“And” between values parts separate entries of the source, which are not always exact repeats. Equal values may be shown once.

Columns and labels:
hILT4-His-Avi tag [1] = biological target: T1, hILT4-His-Avi tag (human, UniProt Q8N423 22-459); experiment: SPR Biacore T200, 37 C; antibody captured on protein A/G chip, monomeric hILT4 as analyte; steady state fit
T1 construct: also called monomeric human ILT4; extracellular region of hILT4 linked to a His-Avi tag
Method: (§1) The binding kinetics of the parent and germline reversion mutant anti-hILT4 antibodies (in the context of IgG1.3) were measured via Surface Plasmon Resonance (SPR) using a Biacore® T200 instrument. The assay temperature was 37° C. and the running buffer was PBS pH 7.4 supplemented with 0.05% Tween-20. Allanti-hILT4 antibodies were captured on a CM4 chip with pre-immobilized protein A/G (Pierce Thermo Scientific catalog number 21186). […] Monomeric human ILT4 was injected as analyte. […] The hILT4 used in this experiment, comprising the extracellular region of hILT4 linked to a His-Avi tag, consists of the following amino acid sequence: […]

hILT4-His-Avi tag [2] = biological target: T1, hILT4-His-Avi tag; experiment: SPR Biacore T200, 37 C; antibody captured by anti-human Fc on CM4 chip, hILT4-His-Avi as analyte; 1:1 Langmuir fit
Method: The running buffer was 10 mM HEPES pH 7.4 supplemented with 0.05% Tween-20 and 1 g/L BSA. All anti-ILT4 antibodies were captured on a CM4 chip with pre-immobilized anti-human Fc capture antibody from Southern Biotech (catalog number 2081-01). […] All data were double-referenced and fitted to a 1:1 Langmuir model with mass transport using Biacore T200 Evaluation Software version 3.1.

[3] = biological target: T2, human ILT4 (hILT4) expressed on cells (human, UniProt Q8N423 22-597); experiment: flow cytometry on human monocytes of a healthy donor, directly labelled antibody, GMFI; EC50 from the table below the graph; the table has no unit, the concentration axis is in ug/mL
T2 construct: hILT4 on transfected CHO or 293T cells, or native on human monocytes and macrophages; also called LILRB2
From the text: In FIG. 18B, monocytes selected from a normal healthy donor's peripheral blood were stained with individual anti-ILT4 antibodies conjugated to […].

hILT4-His-Avi tag [4] = biological target: T1, hILT4-His-Avi tag; experiment: SPR Biacore T200, 37 C; antibody captured on protein A/G chip, monomeric hILT4 as analyte; kinetic fit
Method: as §1

human LILRA6 = biological target: T3, human LILRA6 (human, UniProt Q6PI73 24-481); experiment: flow cytometry, 293T transfectants, antibody 20 µg/ml; stacked histograms, control: parental cells
T3 construct: whole, on cells; also called hLILRA6
Method: (§2) Individual ILT family members were overexpressed in 293T cells. Each transfectant was stained with 20 μg/ml of anti-ILT4 antibodies followed by 1 μg/ml of anti-human IgG secondary mAb. Binding of the antibodies to each transfectant was measured by flow cytometry.

human LILRA2 = biological target: T4, human LILRA2 (human, UniProt Q8N149 24-483); experiment: as above
T4 construct: whole, on cells; also called hLILRA2
Method: as §2

human ILT2 = biological target: T5, human ILT2 (human, UniProt Q8NHL6 24-650); experiment: as above
T5 construct: whole, on cells; also called hILT2
Method: as §2

human LILRA3 = biological target: T6, human LILRA3 (human, UniProt Q8N6C8 24-439); experiment: as above
T6 construct: whole, on cells; also called hLILRA3; LIRA3
Method: as §2

human LILRA5 [5] = biological target: T7, human LILRA5 (human, UniProt A6NI73 42-299); experiment: as above
T7 construct: whole, on cells; also called hLILRA5
Method: as §2

human LIR8 = biological target: T8, human LIR8 (human, UniProt O75023 24-590); experiment: as above
T8 construct: whole, on cells; also called hLIR8
Method: as §2

human LILRA1 = biological target: T9, human LILRA1 (human, UniProt O75019 17-489); experiment: as above
T9 construct: whole, on cells; also called hLILRA1; LIRA1
Method: as §2

human ILT5 = biological target: T10, human ILT5 (human, UniProt O75022 24-631); experiment: as above
T10 construct: whole, on cells; also called hILT5; LILRB3
Method: as §2

human LILRA4 = biological target: T11, human LILRA4 (human, UniProt P59901 24-499); experiment: as above
T11 construct: whole, on cells; also called hLILRA4
Method: as §2

human ILT3 = biological target: T12, human ILT3 (human, UniProt Q8NHJ6 22-448); experiment: as above
T12 construct: whole, on cells; also called hILT3
Method: as §2

[6] = biological target: T2, human ILT4 (hILT4) expressed on cells; experiment: flow cytometry on hILT4-transfected CHO cells, PE anti-human IgG secondary, GMFI (PE); EC50 from the table below the graph; the table has no unit, the concentration axis is in ug/mL
[7] = biological target: T2, human ILT4 (hILT4) expressed on cells; experiment: flow cytometry cross-blocking on hILT4 CHO cells: unlabelled antibody titrated from 40 µg/mL, then PE-21D9.IgG1.1f at 1.5 µg/mL; competitor: PE-21D9; GMFI (PE) falls from about 595 to about 60; the table calls the value EC50 and has no unit, the concentration axis is in µg/mL
From the text: (§3) After washing, the samples were acquired on a FACSCanto™ cytometer (BD Bioscience, San Jose) and analyzed with Flowjo™ software (Tree Star, Inc, Ashland, Oreg.).

[8] = biological target: T2, human ILT4 (hILT4) expressed on cells; experiment: flow cytometry cross-blocking on hILT4 CHO cells: unlabelled antibody titrated from 40 µg/mL, then PE-2H2.IgG1.1f at 1.5 µg/mL; competitor: PE-2H2; GMFI (PE) falls from about 310 to about 45; the table calls the value EC50 and has no unit, the concentration axis is in µg/mL
From the text: as §3

rhILT4-Fc [9] = biological target: T13, rhILT4-Fc (human, UniProt Q8N423-1 22-461); experiment: flow cytometry blocking assay: antibody titrated (12 points) with rhILT4-Fc fixed at 30 µg/ml; rhILT4-Fc bound to HLA-A overexpressing CHO cells read as % Positive; blocked ligand: HLA-A; the IC50 table has no unit, the concentration axis is in ug/mL
T13 construct: also called rhILT4-Fc fusion protein with a murine Fc tail; not shown: murine Fc tail

rhILT4-Fc [10] = biological target: T13, rhILT4-Fc; experiment: flow cytometry blocking assay: antibody titrated (12 points) with rhILT4-Fc fixed at 30 µg/ml; rhILT4-Fc bound to HLA-B overexpressing CHO cells read as % Positive; blocked ligand: HLA-B; the IC50 table has no unit, the concentration axis is in ug/mL
hILT4-His-Avi tag [11] = biological target: T1, hILT4-His-Avi tag; experiment: SPR ProteOn XPR36, 37 C; antibody amine-coupled to GLC chip, ILT4 ECD-His-Avi as analyte; kinetic titration
Method: The antibody was amine-coupled to a GLC sensor chip in a Proteon XPR36 instrument (BioRad). […] All data were double-referenced, exported, and analyzed with BIAevaluation Software 4.1.1 using the kinetic titration model described by Karlsson et al (Karlsson et al. (2005) Analytical Biochem. 349:136). The running buffer consisted of 10 mM HEPES pH 7.4, 150 mM NaCl and 0.05% Tween-20. The assay temperature was 37° C.

human LILRA5 [12] = biological target: T7, human LILRA5; experiment: antibody titration flow cytometry binding assay on transfected cells, nonlinear regression
[13] = biological target: T2, human ILT4 (hILT4) expressed on cells; experiment: as above

T1 sequence (Q8N423 other isoform, or with tags, fused parts or gaps): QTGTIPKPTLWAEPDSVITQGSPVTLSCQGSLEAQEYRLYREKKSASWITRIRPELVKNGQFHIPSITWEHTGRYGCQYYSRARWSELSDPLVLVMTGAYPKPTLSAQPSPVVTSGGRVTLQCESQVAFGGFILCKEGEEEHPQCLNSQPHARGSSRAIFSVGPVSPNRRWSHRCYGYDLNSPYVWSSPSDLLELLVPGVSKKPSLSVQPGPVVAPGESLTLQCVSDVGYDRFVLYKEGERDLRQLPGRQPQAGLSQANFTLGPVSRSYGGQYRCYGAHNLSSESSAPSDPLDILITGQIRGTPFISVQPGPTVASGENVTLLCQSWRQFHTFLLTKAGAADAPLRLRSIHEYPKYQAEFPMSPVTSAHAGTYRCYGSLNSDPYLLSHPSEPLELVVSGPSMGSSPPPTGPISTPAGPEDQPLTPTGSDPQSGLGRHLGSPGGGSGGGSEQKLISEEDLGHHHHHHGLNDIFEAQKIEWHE
T2 sequence (Q8N423 other isoform, or with tags, fused parts or gaps): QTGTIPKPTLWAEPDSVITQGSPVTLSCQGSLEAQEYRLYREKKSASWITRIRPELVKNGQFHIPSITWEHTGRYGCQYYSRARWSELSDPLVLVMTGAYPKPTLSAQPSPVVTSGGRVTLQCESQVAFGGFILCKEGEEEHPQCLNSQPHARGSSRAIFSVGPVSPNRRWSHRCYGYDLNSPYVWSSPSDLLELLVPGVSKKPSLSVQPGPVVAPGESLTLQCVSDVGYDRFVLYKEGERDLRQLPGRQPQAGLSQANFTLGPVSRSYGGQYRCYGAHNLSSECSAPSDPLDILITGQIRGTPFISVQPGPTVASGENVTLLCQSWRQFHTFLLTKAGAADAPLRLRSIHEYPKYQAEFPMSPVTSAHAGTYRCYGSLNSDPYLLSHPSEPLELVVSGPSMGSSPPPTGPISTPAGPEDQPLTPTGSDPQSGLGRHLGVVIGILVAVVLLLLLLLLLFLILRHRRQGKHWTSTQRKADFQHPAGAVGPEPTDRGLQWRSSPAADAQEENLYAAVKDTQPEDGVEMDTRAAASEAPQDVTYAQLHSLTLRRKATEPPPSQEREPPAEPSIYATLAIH
T6 sequence (Q8N6C8 24-439): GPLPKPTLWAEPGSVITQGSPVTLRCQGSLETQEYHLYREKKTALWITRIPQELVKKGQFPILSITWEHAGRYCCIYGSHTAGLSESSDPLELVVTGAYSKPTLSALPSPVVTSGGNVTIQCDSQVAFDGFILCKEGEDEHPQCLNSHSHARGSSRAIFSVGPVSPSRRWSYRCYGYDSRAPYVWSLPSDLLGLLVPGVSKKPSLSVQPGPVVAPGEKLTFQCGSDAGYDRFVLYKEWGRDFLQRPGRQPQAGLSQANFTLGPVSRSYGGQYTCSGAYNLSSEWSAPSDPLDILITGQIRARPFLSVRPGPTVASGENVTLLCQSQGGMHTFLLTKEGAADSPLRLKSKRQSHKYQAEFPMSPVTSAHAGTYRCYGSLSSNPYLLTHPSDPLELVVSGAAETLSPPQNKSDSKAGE
T7 sequence (A6NI73 42-299): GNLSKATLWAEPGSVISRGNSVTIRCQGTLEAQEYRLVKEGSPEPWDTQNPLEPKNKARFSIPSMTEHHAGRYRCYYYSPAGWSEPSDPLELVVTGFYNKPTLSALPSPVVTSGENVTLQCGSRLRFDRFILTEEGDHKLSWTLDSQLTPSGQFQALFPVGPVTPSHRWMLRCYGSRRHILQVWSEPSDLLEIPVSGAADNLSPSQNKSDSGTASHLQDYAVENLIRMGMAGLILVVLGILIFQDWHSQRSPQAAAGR
T13 sequence (Q8N423 other isoform, or with tags, fused parts or gaps): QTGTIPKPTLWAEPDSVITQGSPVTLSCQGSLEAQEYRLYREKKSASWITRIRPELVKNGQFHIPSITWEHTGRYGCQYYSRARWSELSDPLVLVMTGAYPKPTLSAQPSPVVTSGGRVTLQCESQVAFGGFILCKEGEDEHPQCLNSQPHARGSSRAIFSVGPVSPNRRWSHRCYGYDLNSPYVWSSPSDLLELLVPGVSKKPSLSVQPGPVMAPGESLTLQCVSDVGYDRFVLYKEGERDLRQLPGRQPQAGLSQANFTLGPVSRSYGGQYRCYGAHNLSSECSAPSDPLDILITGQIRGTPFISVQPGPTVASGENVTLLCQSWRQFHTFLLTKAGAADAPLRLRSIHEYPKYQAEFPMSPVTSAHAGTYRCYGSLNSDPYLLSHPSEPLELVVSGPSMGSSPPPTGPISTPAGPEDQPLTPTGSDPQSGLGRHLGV
T3 sequence (Q6PI73 24-481): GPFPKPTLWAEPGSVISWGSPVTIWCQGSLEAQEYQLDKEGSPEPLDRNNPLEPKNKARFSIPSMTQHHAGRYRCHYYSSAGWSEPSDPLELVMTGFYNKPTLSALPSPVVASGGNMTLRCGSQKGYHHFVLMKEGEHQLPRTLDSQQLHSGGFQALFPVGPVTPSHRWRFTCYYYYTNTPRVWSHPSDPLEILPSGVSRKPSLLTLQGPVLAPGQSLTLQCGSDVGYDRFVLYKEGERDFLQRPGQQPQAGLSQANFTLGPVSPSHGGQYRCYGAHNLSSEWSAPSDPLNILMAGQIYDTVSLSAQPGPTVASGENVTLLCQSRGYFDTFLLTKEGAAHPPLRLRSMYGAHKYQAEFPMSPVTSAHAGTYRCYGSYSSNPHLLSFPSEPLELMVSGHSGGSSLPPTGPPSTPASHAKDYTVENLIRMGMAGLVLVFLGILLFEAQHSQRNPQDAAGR
T9 sequence (O75019 17-489): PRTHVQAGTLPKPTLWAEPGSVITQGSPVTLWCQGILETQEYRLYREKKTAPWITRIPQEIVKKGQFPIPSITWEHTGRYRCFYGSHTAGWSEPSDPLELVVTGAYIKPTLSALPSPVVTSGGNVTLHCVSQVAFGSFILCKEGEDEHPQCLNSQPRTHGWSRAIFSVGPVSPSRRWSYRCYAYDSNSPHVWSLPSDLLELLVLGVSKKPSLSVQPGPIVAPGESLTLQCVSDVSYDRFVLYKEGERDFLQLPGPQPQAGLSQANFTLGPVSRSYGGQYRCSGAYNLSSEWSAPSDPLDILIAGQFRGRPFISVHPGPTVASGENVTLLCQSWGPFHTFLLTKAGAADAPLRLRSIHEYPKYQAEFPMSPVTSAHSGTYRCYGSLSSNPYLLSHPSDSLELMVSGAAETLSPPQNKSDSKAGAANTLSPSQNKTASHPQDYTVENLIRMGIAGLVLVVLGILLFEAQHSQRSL
T5 sequence (Q8NHL6 24-650): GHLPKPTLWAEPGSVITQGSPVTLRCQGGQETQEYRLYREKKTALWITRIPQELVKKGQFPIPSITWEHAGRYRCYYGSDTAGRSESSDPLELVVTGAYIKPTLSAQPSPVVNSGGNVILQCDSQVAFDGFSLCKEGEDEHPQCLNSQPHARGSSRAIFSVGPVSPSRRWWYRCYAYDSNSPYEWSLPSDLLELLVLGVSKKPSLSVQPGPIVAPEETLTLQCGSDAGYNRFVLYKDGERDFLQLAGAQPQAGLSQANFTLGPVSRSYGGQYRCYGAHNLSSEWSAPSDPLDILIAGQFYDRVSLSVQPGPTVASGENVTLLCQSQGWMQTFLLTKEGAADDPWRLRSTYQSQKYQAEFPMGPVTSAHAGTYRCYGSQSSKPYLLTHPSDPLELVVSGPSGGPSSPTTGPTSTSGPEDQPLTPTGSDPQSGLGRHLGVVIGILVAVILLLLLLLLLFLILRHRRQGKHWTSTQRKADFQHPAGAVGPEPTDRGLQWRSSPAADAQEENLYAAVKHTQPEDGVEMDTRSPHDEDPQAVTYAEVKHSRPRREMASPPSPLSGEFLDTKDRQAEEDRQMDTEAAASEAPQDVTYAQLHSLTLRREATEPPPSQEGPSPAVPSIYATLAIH
T8 sequence (O75023 24-590): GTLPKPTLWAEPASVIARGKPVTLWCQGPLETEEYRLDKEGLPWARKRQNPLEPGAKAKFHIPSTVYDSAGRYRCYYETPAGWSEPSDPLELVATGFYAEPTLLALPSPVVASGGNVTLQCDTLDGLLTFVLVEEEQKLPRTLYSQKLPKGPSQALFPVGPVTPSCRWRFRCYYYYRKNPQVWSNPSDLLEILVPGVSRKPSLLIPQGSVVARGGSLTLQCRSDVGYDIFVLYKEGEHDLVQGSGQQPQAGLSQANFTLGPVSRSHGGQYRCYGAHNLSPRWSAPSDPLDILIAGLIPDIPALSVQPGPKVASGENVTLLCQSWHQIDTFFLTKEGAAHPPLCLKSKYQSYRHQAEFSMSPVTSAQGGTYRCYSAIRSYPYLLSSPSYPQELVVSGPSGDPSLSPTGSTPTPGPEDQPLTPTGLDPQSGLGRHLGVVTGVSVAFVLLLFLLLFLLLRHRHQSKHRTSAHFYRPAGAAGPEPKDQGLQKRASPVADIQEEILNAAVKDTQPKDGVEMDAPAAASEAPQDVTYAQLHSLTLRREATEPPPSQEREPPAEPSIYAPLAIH
T11 sequence (P59901 24-499): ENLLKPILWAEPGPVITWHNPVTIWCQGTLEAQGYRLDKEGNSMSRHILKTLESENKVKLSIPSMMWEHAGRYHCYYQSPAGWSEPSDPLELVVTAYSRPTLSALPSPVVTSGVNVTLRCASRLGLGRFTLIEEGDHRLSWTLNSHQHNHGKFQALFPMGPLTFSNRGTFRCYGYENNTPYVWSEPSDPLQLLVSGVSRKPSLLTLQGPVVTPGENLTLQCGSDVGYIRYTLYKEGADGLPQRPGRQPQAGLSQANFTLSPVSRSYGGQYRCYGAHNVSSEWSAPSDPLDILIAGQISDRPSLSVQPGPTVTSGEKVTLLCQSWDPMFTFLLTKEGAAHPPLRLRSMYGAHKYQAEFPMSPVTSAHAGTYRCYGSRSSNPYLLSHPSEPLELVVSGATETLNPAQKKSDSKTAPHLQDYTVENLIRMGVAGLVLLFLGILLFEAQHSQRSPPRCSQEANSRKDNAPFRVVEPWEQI

| Binder | Kd (hILT4-His-Avi tag [2]) [nM] | app. act. (hILT4-His-Avi tag [2]) [%] | EC50 [3] [µg/mL] | Kd (hILT4-His-Avi tag [4]) | binding result (human LILRA6) | binding result (human LILRA2) | binding result (human ILT2) | binding result (human LILRA3) | binding result (human LIR8) | binding result (human LILRA1) | binding result (human ILT5) | binding result (human LILRA4) | binding result (human ILT3) | EC50 [6] [ng/mL] | also measured |
| --- | --- | --- | --- | --- | --- | --- | --- | --- | --- | --- | --- | --- | --- | --- | --- |
| 10F10.IgG1.3 (antibody, V domains shown, Fully human antibody, IgG1.3 heavy chain constant region (L234A, L235E, G237A), kappa light chain; also called 10F10 WT; ILT4.10.IgG1.3) VH: QVQLVESGGGVVQPGRSLRLSCAASGFTFSSYAMHWVRQAPGKGLEWVAIISYDEYNKYYADSVKGRFTISRDNSKNTLYLQMNSLRAEDTAVYYCAREWVGIRYWGQGTLVTVSS VL: AIQLTQSPSSLSASVGDRVTITCRASQGISSALAWFQQKPGKAPKLLIYDASSLESGVPSRFTGSGSGTDFTLTISSLQPEDFATYYCQQFNSYPITFGQGTRLEIKR | 22 | 100 | 0.131 | 14 nM and 15 nM | no binding (tested: 20 µg/ml) | no binding (tested: 20 µg/ml) | no binding (tested: 20 µg/ml) | no binding (tested: 20 µg/ml) | no binding (tested: 20 µg/ml) | no binding (tested: 20 µg/ml) | no binding (tested: 20 µg/ml) | no binding (tested: 20 µg/ml) | no binding (tested: 20 µg/ml) | 15 | Kd (hILT4-His-Avi tag [1]): 19 nM and 18 nM; koff (hILT4-His-Avi tag [2]): 0.026 s⁻¹; kon (hILT4-His-Avi tag [2]): 1.2e+06 M⁻¹ s⁻¹; koff (hILT4-His-Avi tag [4]): 0.023 s⁻¹ and 0.02 s⁻¹; kon (hILT4-His-Avi tag [4]): 1.6e+06 M⁻¹ s⁻¹ and 1.3e+06 M⁻¹ s⁻¹; binding result (human LILRA5 [5]): no binding (tested: 20 µg/ml); EC50 [7]: 0.0492 µg/mL; EC50 [8]: 0.0279 µg/mL; IC50 (rhILT4-Fc [9]): 3.6 µg/mL; IC50 (rhILT4-Fc [10]): 1.55 µg/mL |
| 21D9.e.IgG1.3 (antibody, V domains shown, Germline reversion mutant of 21D9 with all four VH reversions; light chain of 21D9; IgG1.3; also called ILT4.8.IgG1.3; ILT4.8) VH: EVQLLESGGGLVQPGGSLRLSCAASGFTFSNYAMNWVRQAPGKGLEWVSVISVSGGSTYYADSVKGRFTISRDNSKNTLYLQMNSLRAEDTAVYYCAKDYYYDSGSYYDSFFDYWGQGTLVTVSS VL: not shown | 0.58 | 94 | 0.0341 | 0.39 nM | no binding (tested: 20 µg/ml) | no binding (tested: 20 µg/ml) | no binding (tested: 20 µg/ml) | no binding (tested: 20 µg/ml) | no binding (tested: 20 µg/ml) | no binding (tested: 20 µg/ml) | no binding (tested: 20 µg/ml) | no binding (tested: 20 µg/ml) | no binding (tested: 20 µg/ml) | 4.16 | app. act. (hILT4-His-Avi tag [4]): 93%; Kd (hILT4-His-Avi tag [11]): 0.33 nM; EC50 (human LILRA5 [12]): ~313 µg/mL; EC50 [13]: 0.039 µg/mL |
